{
  "source": "paper PMC8136874",
  "about": "“The entry reaction of the plant shikimate pathway is subjected to highly complex metabolite-mediated regulation” (The Plant Cell, 2021)",
  "key": {"[1]": {"test_system": "O=C[C@H](O)[C@H](O)COP(=O)(O)O", "test": "DHS enzymatic activity assay with recombinant AthDHS3", "type": "biochemical, Arabidopsis thaliana", "conditions": "other: various concentrations of the substrate; means ± SEM, n = 3; pH 7.4", "method": "Unless otherwise noted, DHS enzymatic activity was monitored as previously described ([Liu et al., 2008]), with several optimizations for high-throughput assays with eight-strip PCR tubes and a thermal cycler. The enzyme solution (7.7 µL) containing 50 mM HEPES (pH 7.4) was preincubated with an effector molecule(s) at room temperature for 10 min. For assays using recombinant protein and enzyme fraction isolated from plant leaves, 0.01–0.05 µg and approximately 50 µg of proteins were used, respectively. After adding 0.5 µL of 0.1 M DTT, the samples were further incubated at room temperature for 15 min. […] The enzyme reaction was started by adding 6.8 µL of the substrate solution, then incubated at 37°C for 20 min, and terminated by adding 30 µL of 0.6 M trichloroacetic acid. After brief centrifugation, 5 µL of 200 mM NaIO4 (sodium meta-periodate) in 9 N H3PO4 was added to oxidize the enzymatic product and incubate at 25°C for 20 min. To stop the oxidation reaction, 20 µL of 0.75 M NaAsO2 (sodium arsenite), which was dissolved in 0.5 M Na2SO4 and 0.05 M H2SO4, was immediately mixed. After 5 min of incubation at room temperature, one-third of the sample solution was transferred to a new tube to be mixed with 50 µL of 40 mM thiobarbituric acid and incubated at 99°C for 15 min in a thermal cycler. Developed pink chromophore was extracted by putting the final solutions with 600 µL of cyclohexanone in eight-strip solvent-resistant plastic tubes, mixing vigorously and centrifuging them at 4,500 × g for 3 min to separate water- and cyclohexanone-based layers. The absorbance of the pink supernatant was read at 549 nm with the microplate reader (Infinite 200 PRO, TECAN, Männedorf, Switzerland) to calculate DAHP production with the molar extinction coefficient at 549 nm (ε = 549 nm) of 4.5 × 10^4/M/cm. […]\nFor determination of kinetic parameters, the data of enzymatic activities measured in the presence of various concentration of substrates were calculated with the Michaelis–Menten equation in Graphpad Prism 6 (GraphPad Software, San Diego, CA, USA)."}, "C=C(OP(=O)(O)O)C(=O)O": {"test_system": "C=C(OP(=O)(O)O)C(=O)O", "test": "purified protein, by the assay type", "conditions": "other: various concentrations of the substrate; means ± SEM, n = 3; pH 7.4"}},
  "data": [
    {"substance": "AthDHS3 (Arabidopsis thaliana)", "values": [
      {"measurement": "Km", "setting": "[1]", "value": "1550 ± 276", "unit": "µM"},
      {"measurement": "kcat", "setting": "[1]", "value": "9.13 ± 0.28", "unit": "s⁻¹"},
      {"measurement": "kcat/Km", "setting": "[1]", "value": "6350 ± 160", "unit": "M⁻¹ s⁻¹"},
      {"measurement": "Km", "setting": "C=C(OP(=O)(O)O)C(=O)O", "value": "706 ± 124", "unit": "µM"},
      {"measurement": "kcat", "setting": "C=C(OP(=O)(O)O)C(=O)O", "value": 8.42, "unit": "s⁻¹"},
      {"measurement": "kcat/Km", "setting": "C=C(OP(=O)(O)O)C(=O)O", "value": 12400, "unit": "M⁻¹ s⁻¹"}
    ]}
  ]
}
